Experimental data as given in US20250129146A1, “COMBINED CANCER THERAPY WITH AN EPITHELIAL CELL ADHESION MOLECULE (EPCAM) INHIBITOR AND A WNT INHIBITOR” (ACADEMIA SINICA, priority 2021, published 2025).
“Also recorded” adds a separate entry of the source.

How the values were obtained:
[1] = target: T1, EpCAM (Homo sapiens, UniProt P16422); settings: general description of other anti-EpCAM antibodies; cited from earlier work
T1 construct: HEK293T cells were transfected with full length or EGF like-domain deletion mutant EpCAM-V5; V5; expressed in transfected cells; host or cells: HEK293T
T1 sequence (P16422 24-314): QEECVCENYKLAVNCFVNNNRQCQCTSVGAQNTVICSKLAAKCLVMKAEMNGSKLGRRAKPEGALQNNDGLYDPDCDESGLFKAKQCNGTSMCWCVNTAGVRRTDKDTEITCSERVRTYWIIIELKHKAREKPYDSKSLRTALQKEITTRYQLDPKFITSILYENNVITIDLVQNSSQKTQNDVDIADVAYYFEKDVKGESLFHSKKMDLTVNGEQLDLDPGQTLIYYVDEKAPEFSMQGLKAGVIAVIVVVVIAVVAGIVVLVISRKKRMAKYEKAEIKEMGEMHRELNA

[2] = test system: HCT116 cells; test: Metastatic animal model of human CRC (HCT116 cells via tail vein); format: in vivo, NOD/SCID mice
Method: (§1) All animal experiments were approved and performed according to the regulations from the IACUC at Academia Sinica. HCT116 cells (1×10^6) were injected via tail vein for the metastatic model. Otherwise, 2×10^5 HCT116 cells with luciferase were surgically transplanted into the cecum wall for the orthotopic model. Male NOD/SCID mice, approximately 6 to 8 weeks old, were used for animal experiments (n=5 and n=6 for each treatment group in metastatic and orthotopic models respectively). At 72-h post-injection/transplantation, mice were randomly distributed into four different treatment groups. For the treatments, animals were injected with 20 mg/kg IgG or EpAb2-6 via tail vein twice a week for four weeks, or fed by oral gavage with either vehicle [0.5% methylcellulose (Sigma-Aldrich) and 0.5% Tween80 (Sigma-Aldrich)] or 5 mg/kg LGK974 (MedChemExpress) formulated with the vehicle on alternating days for four weeks, or animals were treated with the combination of both inhibitor and antibody. For the metastatic model, survival was the main endpoint. For the orthotopic model, tumor progression was monitor using bioluminescence imaging. To image the tumors, intraperitoneal injection of D-Luciferin (GOLD BIO) was performed, and images were taken 10 min post-injection.

[3] = test system: HCT116 cells; test: Orthotopic animal model of human CRC (HCT116 cells with luciferase in cecum wall); format: in vivo, NOD/SCID mice; settings: orthotopic model
Method: as §1

[4] = 20 mg/kg EpAb2-6 via tail vein twice a week, 5 mg/kg LGK974 oral gavage on alternating days, four weeks

For “MT201: adecatumumab, a human anti-EpCAM antibody that was subjected to clinical trials [reference compound]”, the EpCAM domains bound [1] is listed as “target only the well-described EGF I domain of EpCAM; also recorded: binding to domain I only”.

B1: EpAb2-6: anti-EpCAM (EpEX) neutralizing monoclonal antibody produced in mice by hybridoma; VH SEQ ID NO: 15, VL SEQ ID NO: 16 (antibody, V domains shown)
VH: VKLQESGPELKKPGETVKISCKASGYTFTDYSMHWVKQAPGKGLKWMGWINTETGEPTYADDFKGRFAFSLETSASTAYLQINNLKNEDTATYFCARTAVYWGQGTTVTVSS
VL: DIQMTQSPSSLSASLGERVSLTCRASQEISVSLSWLQQEPDGTIKRLIYATSTLDSGVPKRFSGSRSGSDYSLTISSLESEDFVDYYCLQYASYPWTFGGGTKLEIK
In the case of B1, the animal survival [2, 4] is reported as “can prolong animal survival; also recorded: could prolong animal survival”, the “mice died by the end of the study” value ([2]; n=5 per group) is reported as 2 out of 5 and the “median / overall survival” value [3] is reported as “relatively higher median survival”. The “tumor progression (bioluminescence)” value [3, 4] was “much slower tumor progression”.
